In this assay the target is high affinity IgE receptor (FcεR1) (human) (UniProt P12319). Briefly: flow cytometry of purified human pDCs, mean over all assayed donors.
high affinity IgE receptor (FcεR1) (human), sequence (P12319 26-257): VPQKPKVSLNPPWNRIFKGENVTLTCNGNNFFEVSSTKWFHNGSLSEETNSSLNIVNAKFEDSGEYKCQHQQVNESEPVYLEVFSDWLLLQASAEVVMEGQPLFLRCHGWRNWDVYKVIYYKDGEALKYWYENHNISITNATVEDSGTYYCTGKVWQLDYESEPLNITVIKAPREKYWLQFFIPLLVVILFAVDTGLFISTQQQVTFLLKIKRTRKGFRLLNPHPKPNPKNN

human immunoglobulin E (IgE), sequence (P01854 other isoform, or with tags, fused parts or gaps): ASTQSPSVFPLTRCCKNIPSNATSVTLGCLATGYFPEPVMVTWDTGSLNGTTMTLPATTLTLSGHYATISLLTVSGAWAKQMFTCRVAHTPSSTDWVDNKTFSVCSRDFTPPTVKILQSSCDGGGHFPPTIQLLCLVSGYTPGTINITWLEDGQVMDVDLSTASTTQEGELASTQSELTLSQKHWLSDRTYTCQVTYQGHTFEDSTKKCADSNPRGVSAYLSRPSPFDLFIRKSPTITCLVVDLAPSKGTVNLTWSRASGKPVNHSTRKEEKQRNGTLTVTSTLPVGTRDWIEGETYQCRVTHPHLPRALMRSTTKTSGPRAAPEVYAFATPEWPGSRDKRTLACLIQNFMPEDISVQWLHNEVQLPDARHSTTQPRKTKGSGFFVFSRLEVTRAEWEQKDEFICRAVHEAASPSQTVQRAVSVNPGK

“human immunoglobulin E (IgE) (from UniProt P01854 1-428) (antibody)” showed a percentage of pDCs displaying IgE bound to FcεR1 of 45.7%.

The values above are taken from patent US20220340687A1.
